{"source": "paper PMC8682772", "about": "“Negative feedback for DARS2–Fis complex by ATP–DnaA supports the cell cycle-coordinated regulation for chromosome replication” (Nucleic Acids Research, 2021)", "key": {"[1]": {"biological_target": "T1, DnaA (Escherichia coli, UniProt P03004 1-467)", "T1 sequence": "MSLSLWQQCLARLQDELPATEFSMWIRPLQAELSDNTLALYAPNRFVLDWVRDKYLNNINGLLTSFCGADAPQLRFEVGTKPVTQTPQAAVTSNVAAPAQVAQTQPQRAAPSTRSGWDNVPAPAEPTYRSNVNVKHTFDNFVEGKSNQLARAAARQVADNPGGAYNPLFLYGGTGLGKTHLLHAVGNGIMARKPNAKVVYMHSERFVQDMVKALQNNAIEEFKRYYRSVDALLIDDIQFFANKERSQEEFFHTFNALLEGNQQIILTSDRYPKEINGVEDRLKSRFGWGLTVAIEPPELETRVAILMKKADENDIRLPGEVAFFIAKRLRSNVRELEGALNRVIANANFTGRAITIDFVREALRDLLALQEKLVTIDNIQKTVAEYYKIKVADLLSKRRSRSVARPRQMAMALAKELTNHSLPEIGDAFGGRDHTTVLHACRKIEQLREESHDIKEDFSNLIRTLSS", "experiment": "EMSA; ADP; monomer to trimer complexes at suboptimal DnaA; EMSA: 20 mM HEPES-KOH pH 7.6, 80 mM KCl, 1 mM EDTA, 4 mM DTT, 5 mM Mg acetate, 0.1 mg/ml BSA, 10% glycerol, 3 uM ATP or ADP, lambda-DNA competitor, 35 nM DNA, 30 C 5 min; pull-down in same buffer with 400 nM FBS1 competitor, preincubations on ice", "conditions": "protein: recombinant; blunt"}, "[2]": {"biological_target": "the molecule itself", "experiment": "native gel or EMSA; DnaA preincubated with 3 uM ATP, then 30°C for 5 min in buffer G (20 mM HEPES–KOH pH 7.6, 80 mM KCl, 1 mM EDTA, 4 mM DTT, 5 mM magnesium acetate, 0.1 mg/ml BSA, 10% glycerol) with 35 nM 52-bp DARS2 FBS2–5 DNA and competitor λ-DNA; 7% polyacrylamide gel; oligomers counted as DnaA molecules on the DNA fragment (C1–C4)"}, "[3]": {"biological_target": "Fis (Escherichia coli, UniProt P0A6R3 1-98)", "sequence (P0A6R3 whole entry)": "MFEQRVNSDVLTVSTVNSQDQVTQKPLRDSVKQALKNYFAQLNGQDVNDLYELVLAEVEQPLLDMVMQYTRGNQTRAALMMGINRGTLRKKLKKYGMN", "experiment": "EMSA; C1 at 100-200 nM Fis, C2 at >=360 nM; EMSA: 20 mM HEPES-KOH pH 7.6, 80 mM KCl, 1 mM EDTA, 4 mM DTT, 5 mM Mg acetate, 0.1 mg/ml BSA, 10% glycerol, 3 uM ATP or ADP, lambda-DNA competitor, 35 nM DNA, 30 C 5 min; pull-down in same buffer with 400 nM FBS1 competitor, preincubations on ice", "conditions": "protein: recombinant; chain copies: 2; blunt"}, "[4]": {"biological_target": "T1, DnaA", "experiment": "EMSA; ATP; oligomers, trimer C3 a major form at >=480 nM DnaA; EMSA: 20 mM HEPES-KOH pH 7.6, 80 mM KCl, 1 mM EDTA, 4 mM DTT, 5 mM Mg acetate, 0.1 mg/ml BSA, 10% glycerol, 3 uM ATP or ADP, lambda-DNA competitor, 35 nM DNA, 30 C 5 min; pull-down in same buffer with 400 nM FBS1 competitor, preincubations on ice", "conditions": "protein: recombinant; blunt"}, "[5]": {"biological_target": "DnaA;Fis (Escherichia coli;Escherichia coli, UniProt P03004;P0A6R3 1-467;1-98, |)", "sequence (P0A6R3 whole entry, one chain of several)": "as the sequence (P0A6R3 whole entry) above", "experiment": "EMSA; ADP; DnaA and Fis bind independently; EMSA: 20 mM HEPES-KOH pH 7.6, 80 mM KCl, 1 mM EDTA, 4 mM DTT, 5 mM Mg acetate, 0.1 mg/ml BSA, 10% glycerol, 3 uM ATP or ADP, lambda-DNA competitor, 35 nM DNA, 30 C 5 min; pull-down in same buffer with 400 nM FBS1 competitor, preincubations on ice", "conditions": "protein: recombinant;recombinant; tags: ;; copies: 1;2; blunt"}, "[6]": {"biological_target": "T1, DnaA", "experiment": "EMSA; ATP; binding inhibited completely; EMSA: 20 mM HEPES-KOH pH 7.6, 80 mM KCl, 1 mM EDTA, 4 mM DTT, 5 mM Mg acetate, 0.1 mg/ml BSA, 10% glycerol, 3 uM ATP or ADP, lambda-DNA competitor, 35 nM DNA, 30 C 5 min; pull-down in same buffer with 400 nM FBS1 competitor, preincubations on ice", "conditions": "protein: recombinant; blunt"}, "[7]": {"biological_target": "T1, DnaA", "experiment": "EMSA; ATP; trimer formation not considerably inhibited; EMSA: 20 mM HEPES-KOH pH 7.6, 80 mM KCl, 1 mM EDTA, 4 mM DTT, 5 mM Mg acetate, 0.1 mg/ml BSA, 10% glycerol, 3 uM ATP or ADP, lambda-DNA competitor, 35 nM DNA, 30 C 5 min; pull-down in same buffer with 400 nM FBS1 competitor, preincubations on ice", "conditions": "protein: recombinant; blunt"}}, "note": "Values joined by “and” are separate entries in the source; they are usually repeats but may differ in a detail not shown here. Identical values can stand only once.", "data": [{"binder": "oriC R5MI2 R14 (dsDNA) DNA 1: TCATTACCTGTGGATAACCTGTGGATAACCTGTGGATAACCTGTGGATAAAATGA DNA 2: TCATTTTATCCACAGGTTATCCACAGGTTATCCACAGGTTATCCACAGGTAATGA", "values": [{"measurement": "binding result", "setting": "[1]", "value": "binds"}]}, {"binder": "DnaA (replication initiator protein of Escherichia coli) (natural protein, UniProt P03004 1-467, looked up, DnaA, chromosomal replication initiator protein, Escherichia coli; four domains, Arg finger Arg285 in domain III; Preincubated with 3 uM ATP (ATP–DnaA) or ADP (ADP–DnaA) before the EMSA; The nucleotide state is told by the assay, not by a separate molecule; also called ATP–DnaA; ADP–DnaA; source: purified protein) MSLSLWQQCLARLQDELPATEFSMWIRPLQAELSDNTLALYAPNRFVLDWVRDKYLNNINGLLTSFCGADAPQLRFEVGTKPVTQTPQAAVTSNVAAPAQVAQTQPQRAAPSTRSGWDNVPAPAEPTYRSNVNVKHTFDNFVEGKSNQLARAAARQVADNPGGAYNPLFLYGGTGLGKTHLLHAVGNGIMARKPNAKVVYMHSERFVQDMVKALQNNAIEEFKRYYRSVDALLIDDIQFFANKERSQEEFFHTFNALLEGNQQIILTSDRYPKEINGVEDRLKSRFGWGLTVAIEPPELETRVAILMKKADENDIRLPGEVAFFIAKRLRSNVRELEGALNRVIANANFTGRAITIDFVREALRDLLALQEKLVTIDNIQKTVAEYYKIKVADLLSKRRSRSVARPRQMAMALAKELTNHSLPEIGDAFGGRDHTTVLHACRKIEQLREESHDIKEDFSNLIRTLSS", "values": [{"measurement": "stoichiometry N", "setting": "[2]", "value": "3 and 4"}]}, {"binder": "FBS2-5 WT (dsDNA) DNA 1: GGGTTGGCGAAAGATCAACCAATGCCGTATTTATCCACAGAATGTGCCACTA DNA 2: TAGTGGCACATTCTGTGGATAAATACGGCATTGGTTGATCTTTCGCCAACCC", "values": [{"measurement": "binding result", "setting": "[3]", "value": "binds"}, {"measurement": "binding result", "setting": "[4]", "value": "binds"}, {"measurement": "binding result", "setting": "[5]", "value": "binds"}]}, {"binder": "FBS2-5 subDnaA box V (dsDNA) DNA 1: GGGTTGGCGAAAGATCAACCAATGCCGTATACAGGCACTGAATGTGCCACTA DNA 2: TAGTGGCACATTCAGTGCCTGTATACGGCATTGGTTGATCTTTCGCCAACCC", "values": [{"measurement": "binding result", "setting": "[6]", "value": "no binding"}]}, {"binder": "FBS2-5 subDnaA box V-c (dsDNA) DNA 1: GGGTTGGCGGGGGGCCGACCAATGCCGTATTTATCCACAGAATGTGCCACTA DNA 2: TAGTGGCACATTCTGTGGATAAATACGGCATTGGTCGGCCCCCCGCCAACCC", "values": [{"measurement": "binding result", "setting": "[7]", "value": "binds"}]}]}
